This note sets out measurements from the DeepSol protein solubility set.

This data set can be described thus: soluble on expression in E. coli; label from the status in PepcDB or PDB records.
On to “MNKSNNEPFNQVLDKHLSRRNFVKSGLGLGAMTAFAGMGLTGCGSDSSSSPIPVDPVPPLPPTKSSAKLNFTSVKGARLNAVVVPEGYSAQVLAPWGTPLNAKAAPWKADGSNTADDQANSVGMHHDGMHFFPLNQAGDDGLLCINHEYIDEIALHPNGPTVDATTGLRTIVDEVRKEINAHGVSVVRIKLTNNQWEVVYNDKHNRRFTGATVMDIAGPLAYSPLLETRYSPDGSQARGTLNNCGNGYTPWGTYLTCEENWPEYFVNRSTLTRDQIRIGISKTSSRYGWDDLAGQDEERLDEFSRFDVTPKGVSARDDYRNEANGHGYIVEIDPYNPTSRAIKRTALGRFRHEGCTFGKLSEGQPVVFYSGHDARFEYLYKFVSAAPWNPQDANSSNRLEIGDKYMNEGTLYAAKFNENGVGAWLPLTLDSQTTDGKTLGNSFASLADIILNTAGAADLLGATPMDRPEWCAVDPFTGSVYLTLTNNSKRTEANPANPRLKNNFGHIIRWDEADKETEFTWDIFVFGSPSDGNAETNLSGLTDLNQFASPDGLAFDKRGILWVQTDNGAEEVAEETNDQMLAIVPSTLLDSANKQTSVTAKNQMELKRFFVGPNDCEVTGFAISPDYKTVFANIQHPGNWPYSNNAAEVTPTGVVLRPRAATVVIRKLDGKEVAVLEHHHHHH”, for which the “soluble on expression in E. coli” value was “soluble”.

On to “MKALLLLVLPWLSPANYIDNVGNLHFLYSELCKGASHYGLTKDRKRRSQDGCPDGCASLTATAPSPEVSAAATISLMTDEPGLDNPAYVSSAEDGQPAISPVDSGRSNRTRARPFERSTIRSRSFKKINRALSVLRRTKSGSAVANHADQGRENSENTTAPEVFPRLYHLIPDGEITSIKINRVDPSESLSIRLVGGSETPLVHIIIQHIYRDGVIARDGRLLPGDIILKVNGMDISNVPHNYAVRLLRQPCQVLWLTVMREQKFRSRNNGQAPDAYRPRDDSFHVILNKSSPEEQLGIKLVRKVDEPGVFIFNVLDGGVAYRHGQLEENDRVLAINGHDLRYGSPESAAHLIQASERRVHLVVSRQVRQRSPDIFQEAGWNSNGSWSPGPGERSNTPKPLHPTITCHEKVVNIQKDPGESLGMTVAGGASHREWDLPIYVISVEPGGVISRDGRIKTGDILLNVDGVELTEVSRSEAVALLKRTSSSIVLKALEVKEYEPQEDCSSPAALDSNHNMAPPSDWSPSWVMWLELPRCLYNCKDIVLRRNTAGSLGFCIVGGYEEYNGNKPFFIKSIVEGTPAYNDGRIRCGDILLAVNGRSTSGMIHACLARLLKELKGRITLTIVSWPGTFL”, for which the “soluble on expression in E. coli” value is given as “soluble”.

As for “MSLQQGINKPIFQQAKLFRYQLPFKIPIVFKGIKLTAREGVILQVQNDKGEFNFAEIAPLPGFSKETLQQATAQIIALLNTPPLNSQSDILLYPSVAFALDCILHNIPISELFKTAESIPLLQGDNHSVLKQYLQMNKPNSVKLKIGRQSVAKDITLFSALSALNNNLLIRCDANQSWTFAQADLFFANINTQLIDYIEEPTASLSDNINLAERYEVQLALDETLQQKQFQYQHHRCFKALILKPTLIGSFERLNYFIKTAKKFHLSVSISSSFESPLGLSQLAFMASQWSKEVDISCGLDTLKFFESAILNKNSDKKLDNKTPINQQVKHLECLWTSNEGHHHHHH”, the “soluble on expression in E. coli” value was “soluble”.

Regarding “SGGRHIQAIRCWTIWKYMKDYFPISLVKTAELDPSRNYIAGFHPHGVLAVGAFANLCTESTGFSSIFPGIRPHLMMLTLWFRAPFFRDYIMSAGLVTSEKESAAHILNRKGGGNLLGIIVGGAQEALDARPGSFTLLLRNRKGFVRLALTHGAPLVPIFSFGENDLFDQIPNSSGSWLRYIQNRLQKIMGISLPLFHGRGVFQYSFGLIPYRRPITTVVGKPIEVQKTLHPSEEEVNQLHQRYIKELCNLFEAHKLKFNIPADQHLEFC”, the “soluble on expression in E. coli” value is listed as “soluble”.

In the case of “MGSDKIHHHHHHMRIRPDRNRGRSAGINPSGRFEPVSRHVFDDGWSSLEELPPFKTEVQVEKPRTIITRNESPDISFDRSINPYRGCEHGCVYCFARPTHAFMGLSPGLDFETKLFAKPDAARLLDKELSKEGYQPRTIAIGTNTDPYQPIEKQYRIMREILEVLEARGHPVGIVTKSALVTRDIDILSRMAERGLAKVALSVTTLDRMLARTMEPRASTPTKRLEAIRQLSDAGIPTSVMVAPIIPGLTDQEMERILDSAYAAGAREAGYVVLRLPLEVSPIFKDWLLRHYPDRYRHVMSLIRSMRDGKDYDSEWGKRMKGAGPYAWQIGRRFEITAKRLGLNIERRTLRTDQFVAAGKDQEQLMLL”, the “soluble on expression in E. coli” value is given as “not soluble”.
